For assay [1], the target named is purified wild-type VP5 protein (bluetongue virus BTV-1). Kind of assay: SEC.
Assay [2] addresses Bluetongue virus membrane penetration protein VP5 (in the purified BTV-1 virion) (bluetongue virus BTV-1). Nature of the assay: cryo-EM structure.
Assay [3] deals with Bluetongue virus core protein VP7 (in the purified BTV-1 virion) (bluetongue virus BTV-1). Kind of assay: cryo-EM structure.

In assay [1], “purified wild-type VP5 protein (natural protein)” gave a stoichiometry N of 3.

Regarding “Bluetongue virus membrane penetration protein VP5 (in the purified BTV-1 virion) (natural protein)”, in assay [2], the stoichiometry N amounted to 3.

The substance “Bluetongue virus core protein VP7 (in the purified BTV-1 virion) (natural protein)” yielded a stoichiometry N in assay [3] of 3.

Values taken from PMC9015746.
